Experimental findings from paper PMC11063326, “2-oxoglutarate-dependent dioxygenases and BAHD acyltransferases drive the structural diversification of orobanchol in Fabaceae plants” (Frontiers in Plant Science, 2024) are described below.

Substrate in the series: CC1=C[C@H](O/C=C2/C(=O)O[C@@H]3[C@H]2[C@@H](O)[C@]24CCCC(C)(C)[C@]32O4)OC1=O
Briefly: product formation (fabacyl acetate) by LC-MS/MS, crude recombinant enzyme. The series is classed as biochemical, Lathyrus oleraceus. The following applies: 200 μM acetyl-CoA, 50 mM citrate pH 6.0, 30°C. The text has this:
product formation (fabacyl acetate) by LC-MS/MS, crude recombinant enzyme on PsFAT (fabacol acetyltransferase, Psat7g079960)

B1: PsFAT (fabacol acetyltransferase, Psat7g079960) (Lathyrus oleraceus) (protein)
chain: MEMEIISREFIKPSSPTPPHLRNFPISFIDHITFRYYVPLLFFYNDTKVSDQKSKISHLKSSLSQILSIYYPFAGRFKDQRSIECNDQGVLFLVANITGIKLSTILENPDEKLFDHLFPDQLQWKLMEWNESILVVQINCFACGGIVISVCTCHKIIDATTAFNFVNDWSKLNREQESESKSTSASLLPYNLLYAGDTIFSLGNLPKFPEVDFAIDKTIVCKRFVFEASKIKLLKNLVNFNSHVVENPTRVEVITALIYKCVVSTLGLNFKTTSLQIAVNLRKRMIPPLSNKCVGNLVWILFVMNPELHDLVFRIRQGLSEFCEVYPKKFGGKEKDSSFICECLKQVTTRVSESDNNQSLIAYASWCKFPMYEADFGWGKPIWVTTSACPARNAVILMDTRDGDGIEVIVSMKKNDMVRFECDVELLQYASVNPSITS
notes: complete CDS from root cDNA, modified pCold III, E. coli BL21(DE3) with GroES/GroEL; crude E. coli extract
As for B1, the Km amounted to 0.287 ± 0.076 µM and the Vmax came out at 0.00745 µM/min.
